Source: US20040018971A1 (published 2004)

How the values were obtained:
[1] = target: HLA-A*1101 (human); experiment: inhibition of 125I-labelled probe peptide binding to purified HLA-A*1101, gel filtration; relative to standard peptide 940.06
[2] = target: T1, HLA-A*2401 (human); experiment: inhibition of 125I-labelled standard peptide binding to purified HLA, gel filtration
T1 construct: Purified HLA class I molecule (kind: MHC class I); also called A*2402

[3] = target: HLA-A*1101 (human); experiment: competitive inhibition of 125I-labeled probe peptide binding to purified HLA-A*1101, gel filtration
[4] = target: HLA-A*0301 (human); experiment: inhibition of 125I probe peptide binding to purified HLA
[5] = target: HLA-A*3101 (human); experiment: as above
[6] = target: HLA-A*6801 (human); experiment: as above
[7] = target: HLA-A*0301 (purified HLA class I molecule) (human); experiment: competition vs 125I standard peptide, purified HLA
[8] = target: T2, HLA-A*1101 (purified HLA class I molecule) (human); experiment: competition vs 125I standard peptide, purified HLA
T2 construct: Purified MHC molecule

Binder | relative binding ratio [1] | relative binding ratio [2] | relative binding ratio [3] | further results
MGDLVDAEEY (also called HER2/neu 1014-1023) [HER2/neu A11 motif peptide, position 1014, 10 amino acids] | 0.0002 ratio (IC50 of standard peptide / IC50 of test peptide) | – | – | –
AFGTVYKGIW (also called Her2/neu.730 (10-mer)) [HER2/neu peptide, position 730, 10 amino acids] | – | 0.001 ratio (IC50 of standard peptide / IC50 of test peptide) | – | –
QVRQVPLQR (also called HER2/neu 90-98) [HER2/neu A11 motif peptide, position 90, 9 amino acids] | 0.0005 ratio (IC50 of standard peptide / IC50 of test peptide) | – | – | –
AYSLTLQGL (also called Her2/neu.440 (9-mer)) [HER2/neu peptide, position 440, 9 amino acids] | – | 0.13 ratio (IC50 of standard peptide / IC50 of test peptide) | – | –
QLVTQLMPY (also called HER2/neu 795-803) [HER2/neu A11 motif peptide, position 795, 9 amino acids] | 0.0039 ratio (IC50 of standard peptide / IC50 of test peptide) | – | – | –
AFGTVYKGIWI (also called Her2/neu.730 (11-mer)) [HER2/neu peptide, position 730, 11 amino acids] | – | 0.0008 ratio (IC50 of standard peptide / IC50 of test peptide) | – | –
CSKPCARVCY [HER2/neu peptide, position 334, 10 amino acids] | – | – | 0.0002 ratio (IC50 of standard peptide / IC50 of test peptide) | –
DFGLARLL (also called Her2/neu.863 (8-mer)) [HER2/neu peptide, position 863, 8 amino acids] | – | 0.0005 ratio (IC50 of standard peptide / IC50 of test peptide) | – | –
MIDSECRPR [HER2/neu A11 motif peptide, position 960, 9 amino acids] | 0.0006 ratio (IC50 of standard peptide / IC50 of test peptide) | – | – | –
PASPLDSTFY (also called HER2/neu 996-1005) [HER2/neu A11 motif peptide, position 996, 10 amino acids] | 0.0001 ratio (IC50 of standard peptide / IC50 of test peptide) | – | – | –
AFDNLYYW (also called Her2/neu.1216 (8-mer)) [HER2/neu peptide, position 1216, 8 amino acids] | – | 0.0039 ratio (IC50 of standard peptide / IC50 of test peptide) | – | –
CYQDTILW (also called Her2/neu.162 (8-mer)) [HER2/neu peptide, position 162, 8 amino acids] | – | 0.012 ratio (IC50 of standard peptide / IC50 of test peptide) | – | –
ALTLIDTNR [HER2/neu peptide, position 180, 9 amino acids] | – | – | 0.0005 ratio (IC50 of standard peptide / IC50 of test peptide) | –
CSPMCKGSR [HER2/neu peptide, position 195, 9 amino acids] | – | – | -0.0001 ratio (IC50 of standard peptide / IC50 of test peptide) | –
AWPDSLPDL (also called Her2/neu.414 (9-mer)) [HER2/neu peptide, position 414, 9 amino acids] | – | 0.0041 ratio (IC50 of standard peptide / IC50 of test peptide) | – | –
AMPNQAQMRI (also called Her2/neu.705 (10-mer)) [HER2/neu peptide, position 705, 10 amino acids] | – | 0.0002 ratio (IC50 of standard peptide / IC50 of test peptide) | – | –
CVARCPSGVK [HER2/neu peptide, position 596, 10 amino acids] | – | – | 0.0042 ratio (IC50 of standard peptide / IC50 of test peptide) | –
AFGTVYKGI (also called Her2/neu.730 (9-mer)) [HER2/neu peptide, position 730, 9 amino acids] | – | 0.0002 ratio (IC50 of standard peptide / IC50 of test peptide) | – | –
CFVHTVPWDQL (also called Her2/neu.475 (11-mer)) [HER2/neu peptide, position 475, 11 amino acids] | – | 0.0003 ratio (IC50 of standard peptide / IC50 of test peptide) | – | –
AMPNQAQMRIL (also called Her2/neu.705 (11-mer)) [HER2/neu peptide, position 705, 11 amino acids] | – | -0.0003 ratio (IC50 of standard peptide / IC50 of test peptide) | – | –
MALESILRRR (also called HER2/neu 889-898) [HER2/neu A11 motif peptide, position 889, 10 amino acids] | 0.0003 ratio (IC50 of standard peptide / IC50 of test peptide) | – | – | –

Binder | relative binding ratio [1] | relative binding ratio [2] | relative binding ratio [3] | further results
EFAGCKKIF (also called Her2/neu.363 (9-mer)) [HER2/neu peptide, position 363, 9 amino acids] | – | 0.0003 ratio (IC50 of standard peptide / IC50 of test peptide) | – | –
LVHRDLAAR (also called HER2/neu 841-849) [HER2/neu A11 motif peptide, position 841, 9 amino acids] | 0.0014 ratio (IC50 of standard peptide / IC50 of test peptide) | – | – | –
ALESILRRR [HER2/neu peptide, position 890, 9 amino acids] | – | – | 0.0006 ratio (IC50 of standard peptide / IC50 of test peptide) | –
PLTCSPQPEY [HER2/neu A11 motif peptide, position 1130, 10 amino acids] | 0.0002 ratio (IC50 of standard peptide / IC50 of test peptide) | – | – | –
CAGGCARCK [HER2/neu peptide, position 220, 9 amino acids] | – | – | -0.0002 ratio (IC50 of standard peptide / IC50 of test peptide) | –
PLQRLRIVR [HER2/neu A11 motif peptide, position 95, 9 amino acids] | 0.0001 ratio (IC50 of standard peptide / IC50 of test peptide) | – | – | –
DLSYMPIWK [HER2/neu peptide, position 607, 9 amino acids] | – | – | 0.01 ratio (IC50 of standard peptide / IC50 of test peptide) | –
ASCVTACPY (also called Her2/neu.293) [HER2/neu peptide, position 293, 9 amino acids] | – | – | 0.0074 ratio (IC50 of standard peptide / IC50 of test peptide) | –
AYSLTLQGLGI (also called Her2/neu.440 (11-mer)) [HER2/neu peptide, position 440, 11 amino acids] | – | 0.023 ratio (IC50 of standard peptide / IC50 of test peptide) | – | –
CAAGCTGPK [HER2/neu peptide, position 240, 9 amino acids] | – | – | 0.0021 ratio (IC50 of standard peptide / IC50 of test peptide) | –
AMPNQAQMR (T0001 prints N there) [HER2/neu peptide, position 705, 9 amino acids] | – | – | 0.0006 ratio (IC50 of standard peptide / IC50 of test peptide) | –
CVTACPYNY [HER2/neu peptide, position 295, 9 amino acids] | – | – | 0.0004 ratio (IC50 of standard peptide / IC50 of test peptide) | –
EFAGCKKI (also called Her2/neu.363 (8-mer)) [HER2/neu peptide, position 363, 8 amino acids] | – | -0.0003 ratio (IC50 of standard peptide / IC50 of test peptide) | – | –
CYGLGMEHL (also called Her2/neu.342 (9-mer)) [HER2/neu peptide, position 342, 9 amino acids] | – | 0.018 ratio (IC50 of standard peptide / IC50 of test peptide) | – | –
QVCTGTDMK (also called HER2/neu 24-32) [HER2/neu A11 motif peptide, position 24, 9 amino acids] | 0.052 ratio (IC50 of standard peptide / IC50 of test peptide) | – | – | –
NVKIPVAIKV (Built as this row prints it (length 10); also called HER2/neu 745-754) [HER2/neu A11 motif peptide, position 745, 10 amino acids] | 0.0007 ratio (IC50 of standard peptide / IC50 of test peptide) | – | – | –
DVRPQPPSPR [HER2/neu peptide, position 1144, 10 amino acids] | – | – | 0.0001 ratio (IC50 of standard peptide / IC50 of test peptide) | –
NIQEFAGCKK (also called HER2/neu 360-369) [HER2/neu A11 motif peptide, position 360, 10 amino acids] | 0.0056 ratio (IC50 of standard peptide / IC50 of test peptide) | – | – | –
CLLDHVRENR [HER2/neu peptide, position 805, 10 amino acids] | – | – | 0.0001 ratio (IC50 of standard peptide / IC50 of test peptide) | –
PTHDPSPLQR (also called HER2/neu 1102-1111) [HER2/neu A11 motif peptide, position 1102, 10 amino acids] | 0.0001 ratio (IC50 of standard peptide / IC50 of test peptide) | – | – | –
DFGLARLLDI (also called Her2/neu.863 (10-mer)) [HER2/neu peptide, position 863, 10 amino acids] | – | 0.0002 ratio (IC50 of standard peptide / IC50 of test peptide) | – | –

Binder | relative binding ratio [1] | relative binding ratio [2] | relative binding ratio [3] | further results
RTVCAGGCAR (synthetic peptide) [Her2/neu.217] | – | – | – | IC50 [4]: 1620 nM; IC50 [5]: 40 nM; IC50 [6]: 320 nM
CYQDTILWKDI (also called Her2/neu.162 (11-mer)) [HER2/neu peptide, position 162, 11 amino acids] | – | 0.0016 ratio (IC50 of standard peptide / IC50 of test peptide) | – | –
AFSPAFDNLY [HER2/neu peptide, position 1212, 10 amino acids] | – | – | 0.0003 ratio (IC50 of standard peptide / IC50 of test peptide) | –
QALLHTANR (also called HER2/neu 491-499) [HER2/neu A11 motif peptide, position 491, 9 amino acids] | 0.001 ratio (IC50 of standard peptide / IC50 of test peptide) | – | – | –
DSECRPRFR [HER2/neu peptide, position 962, 9 amino acids] | – | – | -0.0002 ratio (IC50 of standard peptide / IC50 of test peptide) | –
AFSPAFDNL (also called Her2/neu.1212 (9-mer)) [HER2/neu peptide, position 1212, 9 amino acids] | – | 0.0011 ratio (IC50 of standard peptide / IC50 of test peptide) | – | –
PSGVKPDLSY (also called HER2/neu 601-610) [HER2/neu A11 motif peptide, position 601, 10 amino acids] | 0.0003 ratio (IC50 of standard peptide / IC50 of test peptide) | – | – | –
ASPLDSTFY [HER2/neu peptide, position 997, 9 amino acids] | – | – | 0.0004 ratio (IC50 of standard peptide / IC50 of test peptide) | –
CMQIAKGMSYL (also called Her2/neu.826 (11-mer)) [HER2/neu peptide, position 826, 11 amino acids] | – | -0.0003 ratio (IC50 of standard peptide / IC50 of test peptide) | – | –
MIDSECRPR [HER2/neu peptide, position 960, 9 amino acids] | – | – | – | relative binding ratio [7]: 0.0017 ratio (IC50 standard/IC50 test); relative binding ratio [8]: 0.0006 ratio (IC50 standard/IC50 test)
NIQEFAGCK [HER2/neu A11 motif peptide, position 360, 9 amino acids] | 0.0036 ratio (IC50 of standard peptide / IC50 of test peptide) | – | – | –
LTLIDTNRSR (also called HER2/neu 181-190) [HER2/neu A11 motif peptide, position 181, 10 amino acids] | 0.0005 ratio (IC50 of standard peptide / IC50 of test peptide) | – | – | –
CTGTDMKLR [HER2/neu peptide, position 26, 9 amino acids] | – | – | 0.0005 ratio (IC50 of standard peptide / IC50 of test peptide) | –
LVHRDLAAR [HER2/neu peptide, position 841, 9 amino acids] | – | – | – | relative binding ratio [7]: 0.004 ratio (IC50 standard/IC50 test); relative binding ratio [8]: 0.0014 ratio (IC50 standard/IC50 test)
PLPSETDGY (also called HER2/neu 1119-1127) [HER2/neu A11 motif peptide, position 1119, 9 amino acids] | 0.0002 ratio (IC50 of standard peptide / IC50 of test peptide) | – | – | –
DLAARNVLVK [HER2/neu peptide, position 845, 10 amino acids] | – | – | 0.0007 ratio (IC50 of standard peptide / IC50 of test peptide) | –
PAGATLERPK (also called HER2/neu 1162-1171) [HER2/neu A11 motif peptide, position 1162, 10 amino acids] | -0.0002 ratio (IC50 of standard peptide / IC50 of test peptide) | – | – | –
MALESILRRR [HER2/neu peptide, position 889, 10 amino acids] | – | – | – | relative binding ratio [7]: 0.0011 ratio (IC50 standard/IC50 test); relative binding ratio [8]: 0.0003 ratio (IC50 standard/IC50 test)
CVNCSQFLR (also called Her2/neu.528) [HER2/neu peptide, position 528, 9 amino acids] | – | – | 0.031 ratio (IC50 of standard peptide / IC50 of test peptide) | –
CFVHTVPW (also called Her2/neu.475 (8-mer)) [HER2/neu peptide, position 475, 8 amino acids] | – | 0.019 ratio (IC50 of standard peptide / IC50 of test peptide) | – | –
